According to patent US20160122418A1 (ARIDIS PHARMACEUTICALS, published 2016):

Tests used:
[1] = biological target: T1, F protein on intact RSV particles (Example 10, strain or isolate not stated) (RSV, strain ); assay: competition ELISA; RSV particles pre-incubated with inhibiting mAb at 20 µg/mL; competitor (coating mAb): palivizumab
T1 construct: also called RSV viral particles

[2] = biological target: T1, F protein on intact RSV particles …; assay: competition ELISA; RSV particles pre-incubated with inhibiting mAb at 20 µg/mL; competitor (coating mAb): AR201
Method: After incubation for one hour at 4° C., plates were washed and polyclonal rabbit-anti-RSV-HRP labeled antisera was added to each well. Bound viral particles were detected by colorimetric measurement. Maximum binding of RSV to the immobilized antibody in the presence of the competitor antibody was determined relative to binding in the presence of the monoclonal human IgG control antibody.

[3] = biological target: T2, Human RSV (A2) Fusion glycoprotein RSV F protein, Sino Biological Inc. (Human RSV (A2), UniProt P03420 26-529); assay: ELISA, serial dilutions of purified AR201 on plates coated 'as described above' (RSV-EIA antigen by the legend of FIG. 6, or purified F protein); anti-human IgG-HRP
T2 construct: Bought protein; also called purified RSV F protein; recombinant human RSV F protein

[4] = biological target: T3, F protein of palivizumab-resistant clinical RSV isolate #20 (RSV clinical isolate #20, UniProt P11209 26-574); assay: cell-based or functional assay
T3 chain: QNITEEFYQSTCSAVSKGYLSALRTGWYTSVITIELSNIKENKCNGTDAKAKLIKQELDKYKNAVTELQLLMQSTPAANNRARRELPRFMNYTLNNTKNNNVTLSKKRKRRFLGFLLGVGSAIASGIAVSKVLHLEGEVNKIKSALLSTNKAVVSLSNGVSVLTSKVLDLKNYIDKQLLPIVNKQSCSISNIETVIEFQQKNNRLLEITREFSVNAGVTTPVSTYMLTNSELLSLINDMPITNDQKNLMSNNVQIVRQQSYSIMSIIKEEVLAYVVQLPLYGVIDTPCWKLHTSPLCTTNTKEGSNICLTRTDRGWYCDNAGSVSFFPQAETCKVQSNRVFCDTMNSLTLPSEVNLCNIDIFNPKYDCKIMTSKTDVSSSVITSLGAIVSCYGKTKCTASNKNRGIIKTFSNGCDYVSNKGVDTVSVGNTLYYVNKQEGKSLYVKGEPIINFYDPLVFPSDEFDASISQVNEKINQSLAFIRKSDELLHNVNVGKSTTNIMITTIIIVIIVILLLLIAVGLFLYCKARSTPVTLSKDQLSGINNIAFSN

[5] = biological target: F protein of clinical RSV isolate #1 (RSV clinical isolate #1); assay: cell-based or functional assay
[6] = biological target: T2, Human RSV (A2) Fusion glycoprotein RSV …; assay: SPR, Biacore 2000, F protein amine-coupled to CM5 chip, antibody as analyte, Langmuir 1:1 fit

B1: AR201 (antibody, V domains shown)
VH: LVQLRESGPGLVKPSQTLSLTCSVSGASINLYDYFWGWIRQAPGRGPEWIGYISGSTYYNPSLKRRATISVDTSKSQFFLELTSVTAADTAVYYCARDVGWGPQYYYGLDVWGQGTTVTVSS
VL: DLVLTQSPGTLSLSPGERATLSCRASHSVQSTSLAWYQQKRGQAPRLLIYGGSSRVTGIPDRFSGSGSGTDFTLTISRLEPEDFAVYYCQQSDRSPPITFGQGTRLEMK
notes: Recombinant human IgG1 made in HEK293T cells; kappa light chain cloned whole; The claims' numbering is used here; also called KBRV201; human monoclonal antibody AR201
Question: Which “% binding of RSV to the coating mAb relative to control IgG” value [1] does the source give for B1 here?
Answer: 40.8%

Question: What about the “% binding of RSV to the coating mAb relative to control IgG” value [2] of the same binder?
Answer: 22.5%

Question: What about the EC50 [3] of the same binder?
Answer: 0.103 nM

Question: And the “IC50 of neutralization, infectivity assay on Hep2 cells” value [4]?
Answer: 1710 nM

Question: What about the “IC50 of neutralization, infectivity assay on Hep2 cells” value [5] of the same binder?
Answer: 1700 nM

Question: What about the Kd [6] of the same binder?
Answer: 0.058 nM

Question: What about the koff [6] of the same binder?
Answer: 2.7e-05 s⁻¹

Question: And the kon [6]?
Answer: 470000 M⁻¹ s⁻¹
